# Results as given in the Immune Epitope Database (IEDB).
# Legend:
# HLA-A*26:03 = test: IEDB peptide-MHC binding, purified MHC/competitive/fluorescence; filed as Kd, often an IC50 or EC50 that approximates it; ≥ and ≤ were set here for values at or beyond the usual limits of such assays; details: source organism: Mycobacterium leprae
# HLA-B*08:03 [1] = test: as above; details: source organism: Mycobacterium leprae
# HLA-B*58:01 [2] = test: as above; details: source organism: Mycobacterium leprae
# HLA-B*46:01 = test: as above; details: source organism: Mycobacterium leprae
# HLA-A*02:06 = test: as above; details: source organism: Mycobacterium leprae
# HLA-A*11:01 [3] = test: as above; details: source organism: Mycobacterium leprae
# HLA-B*48:01 [4] = test: as above; details: source organism: Mycobacterium leprae
# HLA-A*68:02 = test: as above
# HLA-A*30:01 = test: as above; details: source organism: Mycobacterium leprae
# HLA-B*40:01 [5] = test: as above; details: source organism: Mycobacterium leprae
# HLA-A*69:01 [6] = test: as above; details: source organism: Mycobacterium leprae
# HLA-B*27:05 [7] = test: as above; details: source organism: Mycobacterium leprae
# HLA-B*35:01 = test: as above; details: source organism: Mycobacterium leprae
# HLA-B*18:01 [8] = test: as above; details: source organism: Mycobacterium leprae
# HLA-B*08:01 [9] = test: as above; details: source organism: Mycobacterium leprae
# HLA-B*57:01 [10] = test: as above; details: source organism: Mycobacterium leprae
# HLA-B*15:17 [11] = test: as above; details: source organism: Mycobacterium leprae
# HLA-A*02:01 [12] = test: as above; details: source organism: Mycobacterium leprae
# HLA-A*31:01 [13] = test: as above; details: source organism: Mycobacterium leprae
# HLA-B*08:02 [14] = test: as above; details: source organism: Mycobacterium leprae
# HLA-A*02:03 = test: as above; details: source organism: Mycobacterium leprae
# HLA-B*15:01 = test: as above; details: source organism: Mycobacterium leprae
# HLA-A*26:02 [15] = test: as above; details: source organism: Mycobacterium leprae
# HLA-A*01:01 [16] = test: as above; details: source organism: Mycobacterium leprae
# HLA-B*07:02 [17] = test: as above; details: source organism: Mycobacterium leprae
# HLA-B*08:03 [18] = test: IEDB peptide-MHC binding, purified MHC/direct/fluorescence; filed as Kd, often an IC50 or EC50 that approximates it; ≥ and ≤ were set here for values at or beyond the usual limits of such assays; details: source organism: Variola virus
# HLA-B*58:01 [19] = test: as above; details: source organism: Camelpox virus M-96
# HLA-A*11:01 [20] = test: as above; details: source organism: Camelpox virus M-96
# HLA-B*48:01 [21] = test: as above; details: source organism: Camelpox virus M-96
# HLA-B*44:02 = test: as above; details: source organism: Camelpox virus M-96
# HLA-B*40:01 [22] = test: as above; details: source organism: Camelpox virus M-96
# HLA-A*69:01 [23] = test: as above
# HLA-B*27:05 [24] = test: as above; details: source organism: Camelpox virus M-96
# HLA-B*18:01 [25] = test: as above; details: source organism: Camelpox virus M-96
# HLA-B*08:01 [26] = test: as above; details: source organism: Variola virus
# HLA-B*57:01 [27] = test: as above; details: source organism: Camelpox virus M-96
# HLA-B*15:17 [28] = test: as above; details: source organism: Camelpox virus M-96
# HLA-A*31:01 [29] = test: as above; details: source organism: Camelpox virus M-96
# HLA-B*08:02 [30] = test: as above; details: source organism: Variola virus
# HLA-A*26:01 = test: as above; details: source organism: Variola virus
# HLA-A*26:02 [31] = test: as above; details: source organism: Variola virus
# HLA-A*01:01 [32] = test: as above; details: source organism: Camelpox virus M-96
# HLA-B*07:02 [33] = test: as above; details: source organism: Camelpox virus M-96
# HLA-B*15:09 = test: IEDB peptide-MHC binding, purified MHC/competitive/fluorescence; filed as Kd, often an IC50 or EC50 that approximates it; ≥ and ≤ were set here for values at or beyond the usual limits of such assays; details: source organism: Vaccinia virus WR
# HLA-B*39:01 = test: as above; details: source organism: Vaccinia virus WR
# HLA-A*02:16 = test: IEDB peptide-MHC binding, purified MHC/direct/fluorescence; filed as Kd, often an IC50 or EC50 that approximates it; ≥ and ≤ were set here for values at or beyond the usual limits of such assays; details: source organism: Yersinia enterocolitica subsp. enterocolitica 8081
# HLA-A*02:01 [34] = test: as above; details: source organism: Yersinia enterocolitica
# HLA-A*02:11 = test: as above; details: source organism: Yersinia enterocolitica subsp. enterocolitica 8081
# HLA-A*02:12 = test: as above; details: source organism: Yersinia enterocolitica subsp. enterocolitica 8081
# HLA-A*02:50 = test: IEDB peptide-MHC binding, purified MHC/competitive/fluorescence; filed as Kd, often an IC50 or EC50 that approximates it; ≥ and ≤ were set here for values at or beyond the usual limits of such assays; details: source organism: Yersinia bercovieri ATCC 43970
sequence,measurement,setting,value
TVGYMYIMK,Kd,HLA-A*26:03,≥ 20 µM
same,Kd,HLA-B*08:03 [1],≥ 20 µM
same,Kd,HLA-B*58:01 [2],≥ 20 µM
same,Kd,HLA-B*46:01,≥ 20 µM
same,Kd,HLA-A*02:06,≥ 20 µM
same,Kd,HLA-A*11:01 [3],0.0049 µM
same,Kd,HLA-B*48:01 [4],≥ 20 µM
same,Kd,HLA-A*68:02; source organism: Mycobacterium leprae,≥ 20 µM
same,Kd,HLA-A*30:01,0.0488 µM
same,Kd,HLA-B*40:01 [5],≥ 20 µM
same,Kd,HLA-A*69:01 [6],≥ 20 µM
same,Kd,HLA-B*27:05 [7],≥ 20 µM
same,Kd,HLA-B*35:01,≥ 20 µM
same,Kd,HLA-B*18:01 [8],≥ 20 µM
same,Kd,HLA-B*08:01 [9],≥ 20 µM
same,Kd,HLA-B*57:01 [10],≥ 20 µM
same,Kd,HLA-B*15:17 [11],≥ 20 µM
same,Kd,HLA-A*02:01 [12],≥ 20 µM
same,Kd,HLA-A*31:01 [13],≥ 5 µM
same,Kd,HLA-B*08:02 [14],≥ 20 µM
same,Kd,HLA-A*02:03,≥ 20 µM
same,Kd,HLA-B*15:01,≥ 20 µM
same,Kd,HLA-A*26:02 [15],≥ 20 µM
same,Kd,HLA-A*01:01 [16],≥ 20 µM
same,Kd,HLA-B*07:02 [17],≥ 20 µM
FENDIDEIL,Kd,HLA-B*08:03 [18],≥ 20 µM
same,Kd,HLA-B*58:01 [19],≥ 20 µM
same,Kd,HLA-A*11:01 [20],≥ 20 µM
same,Kd,HLA-B*48:01 [21],1.2 µM
same,Kd,HLA-B*44:02,≥ 20 µM
same,Kd,HLA-B*40:01 [22],0.0053 µM
same,Kd,HLA-A*69:01 [23]; source organism: Camelpox virus M-96,≥ 20 µM
same,Kd,HLA-B*27:05 [24],≥ 20 µM
same,Kd,HLA-B*18:01 [25],0.122 µM
same,Kd,HLA-B*08:01 [26],≥ 20 µM
same,Kd,HLA-B*57:01 [27],≥ 20 µM
same,Kd,HLA-B*15:17 [28],≥ 20 µM
same,Kd,HLA-A*31:01 [29],≥ 20 µM
same,Kd,HLA-B*08:02 [30],≥ 20 µM
same,Kd,HLA-A*26:01,≥ 20 µM
same,Kd,HLA-A*26:02 [31],≥ 20 µM
same,Kd,HLA-A*01:01 [32],≥ 20 µM
same,Kd,HLA-B*07:02 [33],≥ 20 µM
same,Kd,HLA-A*68:02; source organism: Vaccinia virus WR,2.14 µM
same,Kd,HLA-B*15:09,≥ 20 µM
same,Kd,HLA-B*39:01,≥ 20 µM
TLLCGAATA,Kd,HLA-A*02:16,0.057 µM
same,Kd,HLA-A*69:01 [23]; source organism: Yersinia enterocolitica,0.394 µM
same,Kd,HLA-A*02:01 [34],0.196 µM
same,Kd,HLA-A*02:11,0.042 µM
same,Kd,HLA-A*02:12,0.021 µM
same,Kd,HLA-A*02:50,0.012 µM
